Substrate in data set [1]: O=C(O)CC[C@H](C(=O)O)[C@@H](O)C(=O)O
Kind of data set: Homoisocitrate dehydrogenase activity, NADH absorption at 340 nm. In kind it is biochemical. The note with it: other: recombinant C. albicans HIcDH; pH 7.8; 20.0 °C. As for the experimental part:
(§1) Recombinant C. albicans homoaconitase (HA) and homoisocitrate dehydrogenase (HIcDH) containing oligoHis N-terminal tags were constructed and purified to near homogeneity as described earlier.
Reaction catalyzed by homoisocitrate dehydrogenase (HIcDH) was monitored by measuring the NADH absorption at 340 nm. The standard assay mixture contained 10 mM KCl, 5.0 mM MgCl2, 5 mM NAD^+ and 0.1 mM (2R,3S)-homoisocitrate in 50 mM Hepes-NaOH (pH 7.8) buffer. The reaction mixture with all required components except for the enzyme was preincubated for 3 min and the reaction was started by an addition of the recombinant His6-HIcDH (50 μg). The formation of NADH was measured for 30 s at 20 °C to determine initial reaction velocity. The initial rates were determined using a linear portion of the reaction progress curve.
(§2) The effects of novel compounds on the HA and HIcDH activity was determined by measuring the enzyme activity in standard assay mixtures containing various concentration of an inhibitor (0–10 mM). Inhibitory potential was expressed as IC50 values, i.e., concentrations causing 50% inhibition of enzyme activity in relation to control. All determinations were performed in triplicate.

Substrate in data set [2]: O=C(O)CC[C@@](O)(CC(=O)O)C(=O)O
The experiment in a line: Homoaconitase activity, coupled reaction with HIcDH, NADH at 340 nm. In kind it is biochemical, Candida albicans. The settings on record: other: recombinant C. albicans HA; pH 8.5; 20.0 °C. Here is the method: as §1
Activity of homoaconitase (HA) was measured by a coupled reaction with HIcDH by monitoring the reduction of NAD^+ to NADH at 340 nm. Reaction mixtures containing 50 mM Tris-HCl (pH 8.5), 50 mM KCl, 5 mM MgCl2, 20 mM dithiothreitol, 1 mM NAD^+ and 30 μg/mL of His6-HIcDH in a total volume of 0.9 mL were degassed under argon for 10 min, after which 0.05 mL of His6-HAC solution was added to a final concentration of 10 μg/mL. The reaction was initiated with addition of 0.05 mL of 50 mM (R)-homocitrate. The formation of NADH was measured for 30 s at 20 °C to determine initial reaction velocity. The initial rates were determined using a linear portion of the reaction progress curve.
as §2

B1: recombinant homoisocitrate dehydrogenase (HIcDH) (Candida albicans SC5314) (protein)
chain: STSSTTLKSLKIGLIPGDGIGREVIPAGKAVLENLPAKHDLQFEFVNLDAGFELFKKTGTALPDETVDVLKKECDGALFGAVSSPTTKVAGYSSPIVALRKKLGLYANVRPVKSVEGIGRPVDMVIVRENTEDLYIKEERVYKKEDGTKVAEAIKRITETASTRIAKMAYEIALQREAVRKGTSGKQLHEKPSVTVTHKSNVLSQSDGLFRETCRAVYDANANEYGGIEYKEQIVDSMVYRMFREPEIFDVVVAPNLYGDILSDGAAALVGSLGVVPSANVGDNFAIGEPCHGSAPDIEGKGISNPVATIRSTALMLEFMGYPEAAATIYQAVDANLAEDKIKTPDLGGNSTTQEVIDDIIRRF
As a reminder, the Km is the substrate concentration at which the rate is half of its maximum. Turning to B1, in data set [1], the Michaelis constant (Km) came to 74 µM.

B2: recombinant homoaconitase (HA) (Candida albicans SC5314) (protein)
chain: MMLRFRSFSTTTHLLRGQNLTEKIVQKYAVGLQPSSKKVYSGDYVTIKPAHCMSHDNSWPVATKFMNLGASKVKDNRQIVCTLDHDVQNKSEQNLTKYTNIEKFAKSQGIDFYPAGRGIGHQIMIEEGYAFPLNLTVASDSHSNTYGGIGALGTPIVRTDAASIWATGQTWWQIPPVAKVELIGQLPKGVTGKDIIVALCGIFNNDEVLNHAIEFVGDDAISKLPIDYRLTIANMTTEWGALSGLFPVDETLVEFYQNRLKKLNKPDHPRINNQTIDQLINNKLTSDNDAVYAKHLQIDLSSLSPYISGPNSVKISNSLYDLSQQNIAINKAYLVSCTNSRLSDIQAAADIIKGHKVNPNVEFYVAAASSLVQKDAEQSGAWQTILDAGAKPLPAGCGPCIGLGTGLLKDGEVGISATNRNFKGRMGSKDALAYLASPEVVAASAVLGKIGGPEELNGEPVKQAPRIIKSIETESNSANEAESTSEEASGSIDILPGFPQSIEGELILCNADNINTDGIYPGKYTYQDDITKEQMAKVCMENYDSQFYSKTKPGDIIISGYNFGTGSSREQAATCILARGMKLIVAGSFGNIFSRNSINNALLTLEIPDLINKLRQQYEGNDELTIRTGWFLKWDVTKAQVTVVDGDDNLILTQKVGELGTNLQDIIVKGGLEGWVKSELKTNQ
notes: made in house
Take B2: the Km in data set [2] turned out to be 1500 µM.

(Values after publication PMC6268379, “Antifungal Activity of Homoaconitate and Homoisocitrate Analogs” (Molecules, 2012).)
